Test results: publication PMC314469, “Protein Interaction Networks by Proteome Peptide Scanning” (PLoS Biology, 2004)

T1: Myo5 SH3 (MYO5_YEAST), Q04439
T1 chain: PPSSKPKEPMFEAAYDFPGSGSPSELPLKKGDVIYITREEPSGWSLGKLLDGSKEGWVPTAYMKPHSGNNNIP


Target: T1, Myo5 SH3 (MYO5_YEAST), Q04439
Assay: SPOT array

Row | Binder | normalised SPOT signal, Boehringer light units (BLU); mean over the file's lines of this peptide
1 | VAVPFTLPVIPYDL [YBR223C 517-530] | 240
2 | TWKMHLWPVSPPQL [YLR039C 34-47] | 224
3 | TPYQLLSPILPVLL [YBR136W 679-692] | 287
4 | VFSSLRDPVIPIKL [YGL195W 2560-2573] | 132
5 | VAWSHDSPKPPSDR [YHR163W 199-212] | 30.6
6 | VFSLMNSPAYPDVQ [YIL001W 264-277] | 153
7 | VLFNLDHPMVPENL [YAL018C 292-305] | 220
8 | VFKFLFHPVTPSHF [YJL005W 768-781] | 565
9 | TPTPHPHPHTPHPH [YHR217C 42-55] | 158

Now from value to binder:

Row | normalised SPOT signal, Boehringer light units (BLU); mean over the file's lines of this peptide | Binder
10 | 150 | VEVIMHSPSDPEYA [YML117W 995-1008]
11 | 1640 | VFLRLISPTRPSLE [YOR249C 40-53]
12 | 186 | VARPLSVPGSPRDL [YLR258W 646-659]
13 | 259 | VAKSYGFPVPPKVN [YMR290C 473-486]
14 | 175 | TPMDFPEPVGPLAI [YPL154C 366-379]
15 | 130 | VFGTYLGPDAPLSK [YMR272C 367-380]
16 | 156 | TPSNMGSPGSPVNV [YOL148C 21-34]
17 | 57.4 | VLEAYNVPTPPRLE [YLR410W 284-297]
18 | 14.9 | VELHFPKPEDPASI [YMR246W 254-267]
19 | 148 | TPTHHHIPHIPNQN [YPR065W 331-344]
20 | 180 | VAGYFVIPHTPMPS [YOR378W 217-230]
21 | 25800 | TPPPPPLPSVLSS [YNL271C 1302-1314]
22 | 236 | VEPEWYLPILPMIL [YNL088W 813-826]
23 | 4830 | VAPGLWFPNSPPPL [YPL128C 101-114]
